# Earlier results, collected in article PMC7590900.
# Target: CXCR7 (Homo sapiens) (UniProt P25106)
# Chain of UniProt P25106 (P25106 whole entry): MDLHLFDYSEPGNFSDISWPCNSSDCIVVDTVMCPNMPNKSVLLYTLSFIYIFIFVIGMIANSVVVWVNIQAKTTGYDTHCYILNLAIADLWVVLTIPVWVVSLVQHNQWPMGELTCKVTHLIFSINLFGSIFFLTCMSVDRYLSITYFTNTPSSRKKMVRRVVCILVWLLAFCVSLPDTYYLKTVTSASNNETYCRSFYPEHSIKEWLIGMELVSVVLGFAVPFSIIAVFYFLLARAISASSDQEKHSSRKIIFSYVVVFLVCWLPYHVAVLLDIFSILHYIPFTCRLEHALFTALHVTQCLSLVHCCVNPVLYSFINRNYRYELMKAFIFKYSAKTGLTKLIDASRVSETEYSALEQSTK
substance,measurement,value
CXCL11 (from UniProt O14625),Kd,3.5 nM
